Patent US12540197B2, “Anti-tissue factor antibodies and antibody conjugates, compositions comprising anti-tissue factor antibodies or antibody conjugates, and methods of making and using anti-tissue factor antibodies and antibody conjugates” (SUTRO BIOPHARMA, INC., priority 2023, dated 2026)

Key:
human TF = target: T1, human TF (Homo sapiens, UniProt P13726); assay: Biacore off-rate and kinetic binding, human TF; conditions: Table 12; 25° C., 1:1 Langmuir
T1 construct: purchased Lake Pharma
Protocol: (§1) Anti-Fc polyclonal antibodies were immobilized onto a CM4 chip (Cytiva #BR100534) using amine coupling chemistry (Human Antibody Capture Kit, Cytiva #BR100839). The immobilization steps were carried out at a flow rate of 25 μL/min in 1×HBS-EP+buffer (Cytiva #BR100669). The sensor surfaces were activated for 7 min with a mixture of N-hydroxysuccinimide (NHS, 0.05 M) and 1-ethyl-3-(3-dimethylaminopropyl)-carbodiimide (EDC, 0.2 M). The anti-Fc polyclonal antibodies were injected over all 4 flow cells at a concentration of 25 μg/mL in 10 mM sodium acetate, pH 4.5, for 7 min. Ethanolamine (1 M, pH 8.5) was injected for 7 min to block any remaining activated groups. Approximately 6,000 response units (RU) of capture antibody was immobilized on each flow cell.
(§2) Off-rate and kinetic binding experiments were performed at 25° C. using 1×HBS-EP+buffer. Antibodies were injected over the anti-Fc surface at a concentration of 3 μg/mL for 12 seconds at a flow rate of 10 μL/min on flow cells 2, 3 and 4, followed by a buffer wash for 30 seconds at the same flow rate. Single point off-rate analysis was carried out using an antigen concentration of 100 nM. […] After capturing ligand (antibody) on the anti-Fc surface, the analyte (human TF, Lake Pharma; cynomolgus TF, Sino Bio #90885-C08H; mouse TF, R&D Systems #3178-PA) was bound for 180 seconds, followed by a 420 second dissociation phase at a flow rate of 50 μL/min. Between each ligand capture and analyte binding cycle, regeneration was carried out using 2 injections of 10 mM glycine pH 2.0 for 30 seconds at 30 μL/min, followed by a 30 second buffer wash step.
(§3) The data were fit with the Biacore T200 Evaluation software, using a 1:1 Langmuir binding model. KD (affinity, nM) was determined as a ratio of the kinetic rate constants calculated from the fits of the association and dissociation phases.
(§4) Anti-Fc polyclonal antibodies were immobilized onto a CM4 chip (Cytiva #BR100534) using amine coupling chemistry (Human Antibody Capture Kit, Cytiva #BR100839). The immobilization steps were carried out at a flow rate of 25 μL/min in 1×HBS-EP+buffer (Cytiva #BR100669). The sensor surfaces were activated for 7 min with a mixture of NHS (0.05 M) and EDC (0.2 M). The Anti-Fc antibodies were injected over all 4 flow cells at a concentration of 25 ug/ml in 10 mM sodium acetate, pH 4.5, for 7 min. Ethanolamine (1 M, pH 8.5) was injected for 7 min to block any remaining activated groups. Approximately 6,000 response units (RU) of capture antibody was immobilized on each flow cell. Off-rate and kinetic binding experiments were performed at 25° C. using 1×HBS-EP+buffer. Antibodies or ADCs were injected over the anti-Fc surface at a concentration of 3 μg/mL for 12 seconds at a flow rate of 10 μL/min on flow cells 2, 3 and 4, followed by a buffer wash for 30 seconds at the same flow rate. […] After capturing ligand (antibody) on the anti-Fc surface, the analyte (human TF, Lake Pharma; cynomolgus TF, Sino Bio #90885-C08H; mouse TF, R&D Systems #3178-PA) was bound for 180 seconds, followed by a 420 second dissociation phase at a flow rate of 50 μL/min. Between each ligand capture and analyte binding cycle, regeneration was carried out using 2 injections of 10 mM Glycine pH 2.0 for 30 seconds at 30 μL/min, followed by a 30 second buffer wash step. The data was fit with the Biacore T200 Evaluation software, using a 1-1 Langmuir binding model. KD (affinity, nM) was determined as a ratio of the kinetic rate constants calculated from the fits of the association and dissociation phases.

cynomolgus TF = assay: Biacore off-rate and kinetic binding, cynomolgus TF; conditions: Table 12; 25° C., 1:1 Langmuir
Sequence of cynomolgus TF (as listed by the source): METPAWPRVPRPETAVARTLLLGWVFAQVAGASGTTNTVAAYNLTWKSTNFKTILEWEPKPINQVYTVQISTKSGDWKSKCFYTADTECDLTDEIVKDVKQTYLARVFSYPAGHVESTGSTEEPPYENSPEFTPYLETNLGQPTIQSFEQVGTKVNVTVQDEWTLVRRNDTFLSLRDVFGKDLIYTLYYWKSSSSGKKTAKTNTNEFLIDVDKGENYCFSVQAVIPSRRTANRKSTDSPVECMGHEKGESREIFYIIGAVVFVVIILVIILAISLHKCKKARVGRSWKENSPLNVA
Protocol: as §1, §2, §3, §4

HEK293T = assay: FACS cell-binding assay on parental HEK293T cells; conditions: Table 16, parental cells
Text: HEK293T, BxPC3 cells (TF positive) and NCI-H1703 (TF negative) cells were obtained from ATCC (American Type Culture Collection) and maintained in DMEM:F12 (1:1), high glucose (Corning) supplemented with 10% heat-inactivated fetal bovine serum (ThermoScientific), 1× Penicillin/Streptomycin (Corning) and 2 mmol glutamax (Thermo Fisher Scientific). To generate cells that stably expressing human tissue factor (HEK293T-humanTF) or cynomolgus tissue factor (HEK293T-cynoTF), HEK293T cells were transfected with plasmid vectors that contain the corresponding protein sequence and stable clones were selected with puromycin.
For a fluorescence-activated cell sorting (FACS) cell-binding assay, cells were collected by Accutase and counted by the Vi-CELL Cell Viability Analyzersharvested and, then re-suspended in FACS buffer (DPBS buffer supplemented with 1% bovine serum albumin). A total of 200,000 cells in 100 μL were incubated on ice with 100 μL of anti-TF antibodies in each well of a 96-well plate. Cells were washed twice with ice-cold FACS buffer and then incubated on ice for 60 mins with 5 μg/mL Alexa 647-labeled donkey anti-human Fc antibody (Jackson ImmunoResearch). Unstained cells and cells stained with secondary antibody alone were used as controls. Cells were washed twice with FACS buffer and analyzed using a BD FACS Canto system. Geometric mean fluorescence intensities (MFI) were fitted using non-linear regression analysis with one site specific binding equation on GraphPad Prism (GraphPad Software; La Jolla, CA).

[1] = test system: primary human keratinocytes; assay: ADC cell killing on primary adult human keratinocytes (WST-8); assay type: cell-based; conditions: Table 30, 120 hours, read-out: Keratinocyte Killing EC50
Protocol: To evaluate the cytotoxicity effects of the ADC on the adult primary keratinocytes, a total of 2000 keratinocytes in a volume of 50 microliters were seeded in a 96-well flat bottom cell culture plate coated with keratinocyte coating matrix (Thermo Fisher Scientific) the day before the actual assay starts. ADCs were formulated at 2× starting concentration in cell culture medium and filtered through SpinX 0.22 micron cellulose acetate filtered 2 mL centrifuge tubes (Corning Costar). Filter sterilized samples were serial diluted (1:3) under sterile conditions and added onto cells in triplicates. Plates were cultured at 37° C. in a CO2 incubator for 120 hours. For cell viability measurement, 10 microliters of WST-8 reagent (VWR) were added into each well and plates were incubated at 37° C. in a CO2 incubator for 4 hours. […] Data was fitted with non-linear regression analysis, using log (inhibitor) vs. response, variable slope, 4-parameter fit equation using GraphPad Prism. Data was expressed as % relative cell viability vs. dose of free linker-warhead or ADC in nanomolar with error bars indicating the Standard Deviation (SD) of the triplicates.

[2] = test system: primary human keratinocytes; assay: Cell binding on primary adult human keratinocytes (flow cytometry); conditions: Table 29, primary human keratinocytes
Protocol: Since TF is expressed in human skin, anti-TF antibody 2900-A02 and 2842-B01-Hc3/Lc2 were tested in cell binding assay on primary adult human keratinocyte cells purchased from Thermo Fisher Scientific. Keratinocytes were cultured in defined keratinocyte culture medium (EpiLife Medium, Thermo Fisher Scientific) supplemented with growth supplement S7 (S0175 from Thermo Fisher Scientific) and Penicillin/Streptomycin on plates coated with keratinocyte coating matrix (Thermo Fisher Scientific).
To evaluate antibody binding activity of the anti-TF antibodies on the adult primary keratinocytes, a total of 100,000 keratinocytes per well were incubated on ice with serial dilutions of anti-TF antibodies in FACS buffer (PBS buffer supplemented with 1% bovine serum albumin, 0.05% sodium azide) for 60 minutes. Cells were washed twice with ice-cold FACS buffer and then incubated with 5 microgram/mL Alexa 647 labeled donkey anti-human Fc antibody (Jackson ImmunoResearch, West Grove, PA) on ice for another 60 minutes. Unstained cells and cells stained with secondary antibodies alone were used as controls. Samples were then washed twice using FACS buffer and analyzed using an Attune flow cytometer (Thermo Fisher). Geometric mean fluorescence intensities were fitted using non-linear regression analysis with one site specific binding equation on GraphPad Prism.

T1 sequence (P13726 33-295): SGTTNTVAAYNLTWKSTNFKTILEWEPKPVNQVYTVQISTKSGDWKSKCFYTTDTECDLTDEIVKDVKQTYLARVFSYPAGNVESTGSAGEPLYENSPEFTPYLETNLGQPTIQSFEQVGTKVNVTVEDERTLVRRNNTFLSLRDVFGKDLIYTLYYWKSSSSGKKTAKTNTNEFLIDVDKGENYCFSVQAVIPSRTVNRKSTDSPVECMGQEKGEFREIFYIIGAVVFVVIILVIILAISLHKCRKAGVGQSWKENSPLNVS

- Biacore human TF kinetics ka (human TF): 57200 M⁻¹ s⁻¹
- Biacore human TF kinetics kd (human TF): 0.000418 s⁻¹
- Biacore cynomolgus TF kinetics ka (cynomolgus TF): 72400 M⁻¹ s⁻¹
- Biacore cynomolgus TF kinetics kd (cynomolgus TF): 0.00113 s⁻¹
B1: 37 (antibody)
heavy: MEVQLVESGGGLVQPGGSLRLSCAASGFSISSYDMSWVRQAPGKGLEWIGIIGSNGRTYYPDSVKGRFTISRDNSKNTVTLQMNSLRAEDTAVYYCARGLYDGTGNIWGQGTLVTVSSASTKGPSVFPLAPSSKSTSGGTAALGCLVKDYFPEPVTVSWNSGALTSGVHTFPAVLQSSGLSLSSVVTVPSSSLGTQTYICNVNHKPSNTKVDKKVEPKSCDKTHTCPPCPAPELLGGPSVFLFPPKPKDTLMISRTPEVTCVVVDVSHEDPEVKFNWYVDGVEVHNAKTKPREEQYNSTYRVVSVLTVLHQDWLNGKEYKCKVSNKALPAPIEKTISKAKGQPREPQVYTLPPSREEMTKNQVSLTCLVKGFYPSDIAVEWESNGQPENNYKTTPPVLDSDGSFLYSKLTVDKSRWQQGNVFSCSVMHEALHNHYTQKSLSLSPGK
light: MELVMTQSPPTLSLSPGERVTLSCRASQSVYGNNWLSWYQQKPGQAPRLLIYGASKLATSIPARFSGSGSGTQFTLTISSLQPEDFAVYYCQGTYYSGDWYFAFGQGTKVEIKRTVAAPSVFIFPPSDEQLKSGTASVVCLLNNFYPREAKVQWKVDNALQSGNSQESVTEQDSKDSTYSLSSTLTLSKADYEKHKVYACEVTHQGLSSPVTKSFNRGEC
modifications: pAzMeF at Y180/F404; drug conjugate
- HEK293T Bmax (MFI) (HEK293T): 1062 MFI
- EC50 [1]: > 100 nM
- Keratinocyte Binding Bmax [2]: 151831
